As usually defined, the stoichiometry N is a count of units in the complex or per binding partner.

Three proteins from article PMC5516924 (Biochemistry, 2016) can be followed below.

Residue numbers refer to the chain shown, from its start. In names and notes the source's numbering stands.

The data set “crystal structure” concerns the molecule itself. Briefly: crystal structure.
The data set “SEC” deals with the molecule itself. In words: SEC.

B1: yGsy2-R589A/R592A (enzyme, Saccharomyces cerevisiae)
chain: MSRDLQNHLLFETATEVANRVGGIYSVLKSKAPITVAQYKDHYHLIGPLNKATYQNEVDILDWKKPEAFSDEMRPVQHALQTMESRGVHFVYGRWLIEGAPKVILFDLDSVRGYSNEWKGDLWSLVGIPSPENDFETNDAILLGYTVAWFLGEVAHLDSQHAIVAHFHEWLAGVALPLCRKRRIDVVTIFTTHATLLGRYLCASGSFDFYNCLESVDVDHEAGRFGIYHRYCIERAAAHSADVFTTVSQITAFEAEHLLKRKPDGILPNGLNVIKFQAFHEFQNLHALKKEKINDFVRGHFHGCFDFDLDNTLYFFIAGRYEYKNKGADMFIEALARLNYRLKVSGSKKTVVAFIVMPAKNNSFTVEALKGQAEVRALENTVHEVTTSIGKRIFDHAIRYPHNGLTTELPTDLGELLKSSDKVMLKRRILALRRPEGQLPPIVTHNMVDDANDLILNKIRQVQLFNSPSDRVKMIFHPEFLNANNPILGLDYDEFVRGCHLGVFPSYYEPWGYTPAECTVMGVPSITTNVSGFGAYMEDLIETNQAKDYGIYIVDRRFKAPDESVEQLVDYMEEFVKKTRRQRINQRNATEALSDLLDWKRMGLEYVKARQLALRRGYPDQFRELVGEELNDSNMDALAGGKKLKVARPLSVPGSPRDLRSNSTVYMTPGDLGTLQEVNNADDYFSLGVNPAADDDDDGPYADDS
For B1, in “crystal structure”, the “stoichiometry N” value amounted to 4.

B2: yGsy2-R581A/R592A (enzyme, Saccharomyces cerevisiae)
chain: B1 chain with R581A, A589R
In the case of B2, the “stoichiometry N” value in “SEC” stood at 4.

B3: yGsy2-R581C/R592C (enzyme, Saccharomyces cerevisiae)
chain: B1 chain with R581C, A589R, A592C
Regarding B3, the “stoichiometry N” value in the data set “SEC” worked out at 4.
